1 molecule from patent publication US20180346554A1 (University of Pennsylvania, published 2018) can be followed below.

Holding throughout (assay): cell-based or functional assay
For assay [1], the target named is Env of the HIV-1 pseudotyped virus Bal26 (clade B, Tier 1) (HIV-1 (clade B, Bal26)).
The target of assay [2] is Env of the HIV-1 pseudotyped virus Q23Env17 (clade A, Tier 1) (HIV-1 (clade A, Q23Env17)).
Assay [3] deals with Env of the HIV-1 pseudotyped virus SF162S (clade B, Tier 1) (HIV-1 (clade B, SF162S)).

B1: HIV-1 Env-Fab (Fab generated from the VRC01 antibody by pHIV-1 Env Fab) (Fab, V domains shown)
VH: QVQLVQSGGQMKKPGESMRISCRASGYEFIDCTLNWIRLAPGKRPEWMGWLKPRGGAVNYARPLQGRVTMTRDVYSDTAFLELRSLTVDDTAVYFCTRGKNCDYNWDFEHWGRGTPVIVSS
VL: QIVLTQSPGTLSLSPGETAIISCRTSQYGSLAWYQQRPGQAPRLVIYSGSTRAAGIPDRFSGSRWGPDYNLTISNLESGDFGVYYCQQYEFFGQGTKVQVDI
Consider B1, for which the “plateau percent neutralization (TZM-Bl luciferase assay, serum 1:50)” value in assay [1] was approximately 62%; in assay [2], approximately 60%; in assay [3], approximately 70%.
